Laboratory results: patent publication US20250388683A1 (VETOQUINOL, published 2025)

target: T1, canine IL-31RA expressed on HEK-Blue STAT3 canine IL-31R reporter cells (with canine OSMR) (canine); assay: cell-based or functional assay

Binder	IC50 (read off the curve); STAT3-SEAP reporter, canine IL-31 stimulation [pM]
scFv-Fc-VTQ2201 (scFv-VTQ2201-HLλcap-GS18-Mouse IgG2A-LALAPG-Fc) (Fc fusion) scFv: EVQLQQSGAELVKPGASVKLSCTASGFNIKDSFIHWLKQRPEQGLEWIGRIDPANGNTEYDPNFQGKVTITADTSSNTAYLQLSSLTSEDTAVYYCARYYYGNSHFDAWGQGTTLTVSSGSTSGGGSGGGSGGGGSSRIVMNQTPKFLPISAGDRVIITCKASQSVTNDVTWYQQKPGQSPKVLIHYASNRYTGVPDRFTGSGYGTDFTFTISTVQAEDLAVYFCQQDYSSPFTFGSGTKLTVLGPRGPTIKPCPPCKCPAPNAAGGPSVFIFPPKIKDVLMISLSPIVTCVVVDVSEDDPDVQISWFVNNVEVHTAQTQTHREDYNSTLRVVSALPIQHQDWMSGKEFKCKVNNKDLGAPIERTISKPKGSVRAPQVYVLPPPEEEMTKKQVTLTCMVTDFMPEDIYVEWTNNGKTELNYKNTEPVLDSDGSYFMYSKLRVEKKNWVERNSYSCSVVHEGLHNHHTTKSFSRTPGK	~1000

target: T1, canine IL-31RA expressed on HEK-Blue …; assay: cell-based or functional assay; remark: another data set of the same source

Binder	IC50 ratio (IC50 candidate/IC50 VTQ2101) [ratio]
monoclonal anti-cIL-31RA antibody 28F12 (antibody, V domains shown) VH: EVQLVESDGGLAQPGRSLKLSCAASGFTFSDYYMAWVRQAPTKGLEWVATISYDGSSTYYRDSVRGRFTISRDNAKSTLYLQMDSLRSEDTATYYCARGPLTDWAPNWFAYWGQGTLVTVSS VL: DIQMTQSPASLSASLGETVTIQCQTSEDIYSGLAWYQQKPGKSPQFLIYGASRLEDGVPSRFSGSGSGTQYSLKISSMQTEDEGVYFCQQGLKYPNTFGAGTKLELK	5.6

target: T1, canine IL-31RA expressed on HEK-Blue …; assay: cell-based or functional assay; remark: another data set of the same source

Binder	IC50 (read off the curve); STAT3-SEAP reporter, canine IL-31 stimulation [pM]
scFv-Fc-VTQ2202 (scFv-VTQ2202-HLλcap-GS18-MOUSE IgG2A-LALAPG-Fc) (Fc fusion) scFv: EVQLQQSGAELVKPGASVKLSCTASGFNIKSSFIHWLKQRPEQGLEWIGRIDPAFGATEYNPAFQGKVTITADTSSNTAYLQLSSLTSEDTAVYYCARYHYAASHFDAWGQGTTLTVSSGSTSGGGSGGGSGGGGSSRIVMNQTPKFLPISAGDRVIITCKSSQSVTNDLTWYQQKPGQSPKVLIHYASQRYTGVPDRFTGSGYGTDFTFTISTVQAEDLAVYFCQQDYASPFTFGSGTKLTVLGPRGPTIKPCPPCKCPAPNAAGGPSVFIFPPKIKDVLMISLSPIVTCVVVDVSEDDPDVQISWFVNNVEVHTAQTQTHREDYNSTLRVVSALPIQHQDWMSGKEFKCKVNNKDLGAPIERTISKPKGSVRAPQVYVLPPPEEEMTKKQVTLTCMVTDFMPEDIYVEWTNNGKTELNYKNTEPVLDSDGSYFMYSKLRVEKKNWVERNSYSCSVVHEGLHNHHTTKSFSRTPGK	~800

target: T1, canine IL-31RA expressed on HEK-Blue …; assay: cell-based or functional assay; remark: another data set of the same source

Binder	IC50 (read off the curve); STAT3-SEAP reporter, canine IL-31 stimulation [pM]
monoclonal anti-cIL-31RA antibody 28F12 (antibody, V domains shown) VH: EVQLVESDGGLAQPGRSLKLSCAASGFTFSDYYMAWVRQAPTKGLEWVATISYDGSSTYYRDSVRGRFTISRDNAKSTLYLQMDSLRSEDTATYYCARGPLTDWAPNWFAYWGQGTLVTVSS VL: DIQMTQSPASLSASLGETVTIQCQTSEDIYSGLAWYQQKPGKSPQFLIYGASRLEDGVPSRFSGSGSGTQYSLKISSMQTEDEGVYFCQQGLKYPNTFGAGTKLELK	~700

target: T1, canine IL-31RA expressed on HEK-Blue …; assay: cell-based or functional assay; remark: another data set of the same source

Binder	IC50 ratio (IC50 candidate/IC50 VTQ2101) [ratio]
scFv-Fc-VTQ2202 (scFv-VTQ2202-HLλcap-GS18-MOUSE IgG2A-LALAPG-Fc) (Fc fusion) scFv: EVQLQQSGAELVKPGASVKLSCTASGFNIKSSFIHWLKQRPEQGLEWIGRIDPAFGATEYNPAFQGKVTITADTSSNTAYLQLSSLTSEDTAVYYCARYHYAASHFDAWGQGTTLTVSSGSTSGGGSGGGSGGGGSSRIVMNQTPKFLPISAGDRVIITCKSSQSVTNDLTWYQQKPGQSPKVLIHYASQRYTGVPDRFTGSGYGTDFTFTISTVQAEDLAVYFCQQDYASPFTFGSGTKLTVLGPRGPTIKPCPPCKCPAPNAAGGPSVFIFPPKIKDVLMISLSPIVTCVVVDVSEDDPDVQISWFVNNVEVHTAQTQTHREDYNSTLRVVSALPIQHQDWMSGKEFKCKVNNKDLGAPIERTISKPKGSVRAPQVYVLPPPEEEMTKKQVTLTCMVTDFMPEDIYVEWTNNGKTELNYKNTEPVLDSDGSYFMYSKLRVEKKNWVERNSYSCSVVHEGLHNHHTTKSFSRTPGK	1
scFv-Fc-VTQ2201 (scFv-VTQ2201-HLλcap-GS18-Mouse IgG2A-LALAPG-Fc) (Fc fusion) scFv: EVQLQQSGAELVKPGASVKLSCTASGFNIKDSFIHWLKQRPEQGLEWIGRIDPANGNTEYDPNFQGKVTITADTSSNTAYLQLSSLTSEDTAVYYCARYYYGNSHFDAWGQGTTLTVSSGSTSGGGSGGGSGGGGSSRIVMNQTPKFLPISAGDRVIITCKASQSVTNDVTWYQQKPGQSPKVLIHYASNRYTGVPDRFTGSGYGTDFTFTISTVQAEDLAVYFCQQDYSSPFTFGSGTKLTVLGPRGPTIKPCPPCKCPAPNAAGGPSVFIFPPKIKDVLMISLSPIVTCVVVDVSEDDPDVQISWFVNNVEVHTAQTQTHREDYNSTLRVVSALPIQHQDWMSGKEFKCKVNNKDLGAPIERTISKPKGSVRAPQVYVLPPPEEEMTKKQVTLTCMVTDFMPEDIYVEWTNNGKTELNYKNTEPVLDSDGSYFMYSKLRVEKKNWVERNSYSCSVVHEGLHNHHTTKSFSRTPGK	1

target: T1, canine IL-31RA expressed on HEK-Blue …; assay: cell-based or functional assay; remark: another data set of the same source

Binder	Mean IC50 (nM) (n = 3), HEK-Blue cell-based SEAP assay
8D3-VH-H/8D3-VL-Ev2 caninized antibody (antibody, V domains shown) VH: EVTLQESGPGLVKPSQTLSLTCVASGFSIKDSFIHWLRQRPGRGLEWIGRIDPAQGATEYDANFQGRISITADTAKNQASLQLSSMTTEDTAVYYCARYYYGASHFDAWGQGTLVTVSS VL: RIVMTQSPGSLAGSVGESVSINCKSSQSVTNDVTWYQQKPGEAPKVLIHYASQRYSGVPARFSGSGYGTDFTLTINNLQAEDVGDYFCQQDYASPFTFGQGTKLEIK	0.59
8D3-VH-518/8D3-VL-A caninized antibody (antibody, V domains shown) VH: VTLQESGPGLVKPSQTLSLTCVASGFSIKDSFIHWLRQRPGRGLEWIGYIDPLQGNTEYDPVFQGRLSITADTAKNQVSLQLSSMTTEDTAVYYCARYYYARSHFDAWGQGTLVTVSS VL: RIVMTQSPGSLAGSAGESVSINCKASQSVTNDVTWYQQKPGERPKVLIHYASNRYTGVPARFSGSGSGTDFTFTINNLQAEDVGDYFCQQDYSSPFTFGQGTKLEIK	0.54
8D3-VH-Lv2/8D3-VL-G caninized antibody (antibody, V domains shown) VH: EVTLQESGPGLVKPSQTLSLTCVASGFSIKSSFIHWLRQRPGRGLEWIGRIDPLQGATEYNPVFQGRLSITADTAKNQVSLQLSSMTTEDTAVYYCARYHYAQSHFDAWGQGTLVTVSS VL: RIVMTQSPGSLAGSVGESVSINCKSSQSVTNDLTWYQQKPGEAPKVLIHYASQRYPGVPARFSGSGYGTDFTLTINNLQAEDVGDYFCQQDYASPFTFGQGTKLEIK	0.41
8D3-VH-Lv2/8D3-VL-Ev2 caninized antibody (antibody, V domains shown) VH: EVTLQESGPGLVKPSQTLSLTCVASGFSIKSSFIHWLRQRPGRGLEWIGRIDPLQGATEYNPVFQGRLSITADTAKNQVSLQLSSMTTEDTAVYYCARYHYAQSHFDAWGQGTLVTVSS VL: RIVMTQSPGSLAGSVGESVSINCKSSQSVTNDVTWYQQKPGEAPKVLIHYASQRYSGVPARFSGSGYGTDFTLTINNLQAEDVGDYFCQQDYASPFTFGQGTKLEIK	0.38
8D3-VH-L/8D3-VL-Ev2 caninized antibody (antibody, V domains shown) VH: EVTLQESGPGLVKPSQTLSLTCVASGFSIKSSFIHWLRQRPGRGLEWIGRIDPAFGATEYNPAFQGRFSITADTAKNQASLQLSSMTTEDSAVYYCARYHYAASHFDAWGQGTLVTVSS VL: RIVMTQSPGSLAGSVGESVSINCKSSQSVTNDVTWYQQKPGEAPKVLIHYASQRYSGVPARFSGSGYGTDFTLTINNLQAEDVGDYFCQQDYASPFTFGQGTKLEIK	0.41
8D3-VH-518H/8D3-VL-A caninized antibody (antibody, V domains shown) VH: EVTLQESGPGLVKPSQTLSLTCVASGFSIKSSFIHWLRQRPGRGLEWIGYIDPLQGGTEYNPVFQGRLSITADTAKNQVSLQLSSMTTEDTAVYYCARYHYATSHFDAWGQGTLVTVSS VL: RIVMTQSPGSLAGSAGESVSINCKASQSVTNDVTWYQQKPGERPKVLIHYASNRYTGVPARFSGSGSGTDFTFTINNLQAEDVGDYFCQQDYSSPFTFGQGTKLEIK	0.48
8D3-VH-L/8D3-VL-G caninized antibody (antibody, V domains shown) VH: EVTLQESGPGLVKPSQTLSLTCVASGFSIKSSFIHWLRQRPGRGLEWIGRIDPAFGATEYNPAFQGRFSITADTAKNQASLQLSSMTTEDSAVYYCARYHYAASHFDAWGQGTLVTVSS VL: RIVMTQSPGSLAGSVGESVSINCKSSQSVTNDLTWYQQKPGEAPKVLIHYASQRYPGVPARFSGSGYGTDFTLTINNLQAEDVGDYFCQQDYASPFTFGQGTKLEIK	0.44
8D3-VH-Lv2/8D3-VL-H caninized antibody (antibody, V domains shown) VH: EVTLQESGPGLVKPSQTLSLTCVASGFSIKSSFIHWLRQRPGRGLEWIGRIDPLQGATEYNPVFQGRLSITADTAKNQVSLQLSSMTTEDTAVYYCARYHYAQSHFDAWGQGTLVTVSS VL: RIVMTQSPGSLAGSVGESVSINCKSSQSVTNDLTWYQQKPGEAPKVLITYASQRYTGVPARFSGSGYGTDFTLTINNLQAEDVGDYFCQQDYASPFTFGQGTKLEIK	0.54
8D3-VH-N/8D3-VL-Ev2 caninized antibody (antibody, V domains shown) VH: EVTLQESGPGLVKPSQTLSLTCVASGFSIKSSFIHWLRQRPGRGLEWIGYIDPLQGGTEYNPVFQGRISITADTAKNQVSLQLSSMTTEDTAVYYCARYYYAQSHFDAWGQGTLVTVSS VL: RIVMTQSPGSLAGSVGESVSINCKSSQSVTNDVTWYQQKPGEAPKVLIHYASQRYSGVPARFSGSGYGTDFTLTINNLQAEDVGDYFCQQDYASPFTFGQGTKLEIK	0.54
8D3-VH-518/8D3-VL-Ev2 caninized antibody (antibody, V domains shown) VH: VTLQESGPGLVKPSQTLSLTCVASGFSIKDSFIHWLRQRPGRGLEWIGYIDPLQGNTEYDPVFQGRLSITADTAKNQVSLQLSSMTTEDTAVYYCARYYYARSHFDAWGQGTLVTVSS VL: RIVMTQSPGSLAGSVGESVSINCKSSQSVTNDVTWYQQKPGEAPKVLIHYASQRYSGVPARFSGSGYGTDFTLTINNLQAEDVGDYFCQQDYASPFTFGQGTKLEIK	0.57
8D3-VH-N/8D3-VL-E caninized antibody (antibody, V domains shown) VH: EVTLQESGPGLVKPSQTLSLTCVASGFSIKSSFIHWLRQRPGRGLEWIGYIDPLQGGTEYNPVFQGRISITADTAKNQVSLQLSSMTTEDTAVYYCARYYYAQSHFDAWGQGTLVTVSS VL: RIVMTQSPGSLAVSVGESVSINCKSSQSVTNDVTWYQWKPGEAPKVLITYASIRYSGVPARFSGSGYGTDFTLTINNLQAEDVGDYFCQQDYASPFTFGQGTKLEIK	0.44
8D3-VH-Lv2/8D3-VL-E caninized antibody (antibody, V domains shown) VH: EVTLQESGPGLVKPSQTLSLTCVASGFSIKSSFIHWLRQRPGRGLEWIGRIDPLQGATEYNPVFQGRLSITADTAKNQVSLQLSSMTTEDTAVYYCARYHYAQSHFDAWGQGTLVTVSS VL: RIVMTQSPGSLAVSVGESVSINCKSSQSVTNDVTWYQWKPGEAPKVLITYASIRYSGVPARFSGSGYGTDFTLTINNLQAEDVGDYFCQQDYASPFTFGQGTKLEIK	0.49
8D3-clone7v2-VH/8D3-clone 7-VL caninized antibody (antibody, V domains shown) VH: EVTLQESGPGLVKPSQTLSLTCVASGFSIKSSFIHWLRQRPGRGLEWIGRIDPLQGGTEYNPVFQGRISITADTTKNQVSLQLSSMTTEDTAVYYCARYYYAQSHFDAWGQGTLVTVSS VL: RIVMTQSPGSLAGSAGESVSINCKSSQSVTNDLTWYQQKPGEAPKVLIHYASQRYTGVPARFSGSGYGTDFTLTINNLQAEDVGVYFCQQDYSSPFTFGQGTKLEIK	0.44
